# Laboratory results taken from the DeepSol protein solubility set.
# Test: soluble on expression in E. coli; label from the status in PepcDB or PDB records
row,Sequence,soluble on expression in E. coli
1,MKHESTKIPLVIFMHIPKTGGITLRNILDQQYRSEHILRLPQKNKLDNLLQKKGANIKKLQCVYGHHRFGVHEYFQQPFTYITMLRHPVERIISTYYFILQNERNRMHQKVKPLTFEQFVQSTDPDLQVPLTNHQTRYLSGERKPNLNKALQHMDTHFSVVGITELYNESLFIMKKKLGWDHISYQKKNVTKKRKRQTDIGLDTIEIIKRKNPLDLHLYETAKEKLQEHIKRLDSGARKELQQFLQDQNGFGPHGMAGDPLEHHHHHH,soluble
2,MKHLEIELKTLLKKDEYNRLKDQFTGVTPVLQTNYYIDTPDFELREKKVAMRIRTFEDWAELTLKVPQSVGNMEYNQKLQLKDAENYLSKEELPQGLVLDELAKHGIQSKNWQVLGCLTTLRYEMKTAIGLMALDQSRYFDITDYELELEVENHEQGKQDFRQFLEKNQISYQKAPSKLVRFVKSMKNS,not soluble
3,MKHNLNAHEARVIGCLLEKQVTTPEQYPMSLNGLTLACNQKTSRDPVMELSESQVQQTLDFLLKKHLIRSQSGNRVMKYEHRFCNSEFGDLKFSPAEVAVITLLLLRGAQTPGELRTRTNRMYEFADVAETEETLKTLSLREDGPFVVRLAREPGKRESRFMPLFSGDVASSLLAAGEAEENNHTLEANPRETHSFENIALEKTALEARVAQLEQQVIQLSRRLDDVLIQLDDMKKLRVGIVGLGGIAQKAYLPILTQAQGWQLVGAFSPNQAKAQPLCDSYRMRYFSRLDTLAAASDAVFVHSSTASHFQVVHDLLQAGVHVYVDKPLAETREQSEQLIELADKQHLALMVGFNRRFAPLYQQLKQQASSPVSLRMEKHRLSSIGPHDLGFTLLDDYLHVVDTALWLGGEGARLTGGAVQTNAQGQMLYAEHHFQQGGCLITTSMHRQAGTQRESVQVISDGACYHITDMRQWQQASAGQVISQPAPGWQTTLEQRGFTGAVHHFIEAVSNQTRPQVSGEDAIVAQRMIERILQQ,not soluble
4,MKHYLAIDIGGTAIKYGLISETGDLLEKEEMATEAYKGGPSILEKVKGLVKTYQDQMDLAGVAISSAGMVNPDEGEIFYAGPQIPNYAGTQFKKEIEETFGLPCEVENDVNCAGLAEAISGSAKDYPVALCLTIGTGIGGCLLFNSQVFHGSSHSACEVGYLHLSDGQFQDLASTTALVQEVVLAYGDDISQWDGRRIFEQAKAGDAICIAAISKQVDYLGQGIANICYVVNPNVVVLGGGIMAQKDYLADKLKTALDSYLVSSLAKKTQLKFASHGNNAGILGAYYHFKQKNERSCSFITLEKIENNLASS,not soluble
5,MKIALIGASGYVGSALLKEALSRGHHVTALVSRPERIAAQANLAAAKVDVQDSAQLAEQLKGFDAVLSAFSGHAQAEQFDYFVKGIRSIIAAAKAAQAPRLLVVGGAGSLEVAPGVQLVDTPEFPEQWKASALGAREALNLLRAETELNWTLLSPSAMLQPGQRTGQFRLGKDQLLVDAEGNSHISVEDYAVAMIDELEKGEHQRSRFTVGYLEHHHHHH,soluble
6,MKIEEEFISASVNPRSHCLTACKTAPLVAYASSLQIAVQTIPKDDSEVGVIKSTSERRHQKPITVLKRLKSSEIVADEFVTGGVDSRVVLWKLRGEHVEYVADLTGCDGSVGSVCGCVEDGRKVVAAAWVSETSNGFHAWWTSSIGDLLNSTEIKLDHKAFALCLDAISIQNSVLLAVGTSKRFVELYGESADKKSFSRLISVAGHTDWIHSIAFNDNPDHLLVASAGQDTYVRLWAIEPETDEKSENIREDSSTTPPDELTSSANLFSINYTPYRCSSHAVMQGHDDWVHSTVWSNDGRVLLTASSDKTCIIWKEIDNLWRDDVRLGIVGGGQAAGFFAAVFSSSLDLKDSGEKNAENVVISSSYFGGLHCWKSTDEQKTFWTALPMTGGHVGEVRDVDWHRSDDGDSGFLMSVGQDQTTRVFAKNGRQQSYVEIARPQVHGHDMQCLSFVNPSIFVSGAEEKVFRAFRAPKSFVKSLEAISGVPTEKSFGDSDLAEFGACVPALGLSNKPMVEGETVDGEHWEEDAFRAAPVVLTSPPTEDTLQQNTLWPEQHKLYGHGYEVYAVTANPTGNVLATACKSSHVEHSVVMLWSTSNWSKKSEIIGHQLTVTQIAWNPSGTRLLTVSRDRTAKLYTEKNGEVDGFDYDCVWTSGKQHTRIIWACDWIDDEHFVTASRDQKVIVWAESAGQTAPKATVKLDEPVTAIAAVSKDVIVAGLQTGELIVLRFDSEGLHVIEKIGANRIPIDSAVLRLRFSKNGRKLAVATTDAKLRIFNVSQ,not soluble
7,MKIGIVGLGRVGSSTAFALLMKGFAREMVLIDVDKKRAEGDALDLIHGTPFTRRANIYAGDYADLKGSDVVIVAAGVPQKPGETRLQLLGRNARVMKEIARNVSKYAPDSIVIVVTNPVDVLTYFFLKESGMDPRKVFGSGTVLDTARLRTLIAQHCGFSPRSVHVYVIGEHGDSEVPVWSGAMIGGIPLQNMCQVCQKCDSKILENFAEKTKRAAYEIIERKGATHYAIALAVADIVESIFFDEKRVLTLSVYLEDYLGVKDLCISVPVTLGKHGVERILELNLNEEELEAFRKSASILKNAINEITAEENKHQNTSG,soluble
8,MKIIAFYLPQFHQIKENDRWWGKGFTEWTNTKSAQPLFSGHYQPREPYQDFYYDLTTPSVRKWQAEIAKAYGIYGFCYYHYWFKGKRLLETPFNEVLKMKEPDFPFCLSWANEPWTKSWDGLDKHILMPQDYGDISDWKEHFDYLLQAFQDERYIYIDDKPLFIIYRPGHIPDCEKMLNYWNALARANGLKGIYFAETLNSFPLPNINGFDASIQFEPFYTIAHDSSSDINKVIYDSDMQLNVWDYDKVWMYILQRSLPKKKTFPGAFVDWDNTARRKNANSSIFVGSTPEKFTIYLSKQIHRTYSFYNSEFLFINAWNEWAEGTYLEPDKKYGFSYLEGVKNAIDRGMKAYKKDESFLEHHHHHH,not soluble
9,MKIIAYGARVDEIQYFKQWAKDTGNTLEYHTEFLDENTVEWAKGFDGINSLQTTPYAAGVFEKMHAYGIKFLTIRNVGTDNIDMTAMKQYGIRLSNVPAYSPAAIAEFALTDTLYLLRNMGKVQAQLQAGDYEKAGTFIGKELGQQTVGVMGTGHIGQVAIKLFKGFGAKVIAYDPYPMKGDHPDFDYVSLEDLFKQSDVIDLHVPGIEQNTHIINEAAFNLMKPGAIVINTARPNLIDTQAMLSNLKSGKLAGVGIDTYEYETEDLLNLAKHGSFKDPLWDELLGMPNVVLSPHIAYYTETAVHNMVYFSLQHLVDFLTKGETSTEVTGPAK,soluble
10,MKIIIIGGVAGGATTAARIRRTNEAAEIILLEKGKYISYANCGLPYYIGGVIKEREKLFVQTPEAFSTRFRVDVRTENEVIFIDRKRKTVTVRQSSGDTYEESYDKLLISTGASPVRPPLPGIDLNGIFTLRNVADTDRIKEYINSHAPRKAVVIGAGFIGLEMAENLHAQGAKVSIVEMGNQVMAPIDFSMASLVHQHLMDKGVNLYLEQAVASFERDGKGLKVIFKNGQSISADIVILSIGVRPETTLARAAELKIGEAGGIAVNDYLQTSDESIYAIGDAIEFRHPITGKPWLNYLAGPANRQGRIVADNIQGAHIPYEGAIGTSIAKVFDMTVASTGLPGKRLRQAEINYMSSTIHPSSHAGYYPDAMPMSIKITFDPKTGKLYGGQIVGYDGVDKRIDEIALVIKHEGTIYDLMKVEQAYAPPFSSAKDPVAVAGYVAENIITGKVQPVYWRQLRDIEMENNFLLDVRTPDEFSLNTLPGAVNIPLDELRDRLDELPKDKMIYTFCAVGLRGYLAYRILVQHGFEKVRNLSGGLKTYHAAAAPIILREESENEVPAQPNANIQQPADAQPQKTVSPVEAVKTIRVDACGLQCPGPILKMKKTMDSLVSGDRVEITSTDPGFPRDAAAWCNSTGNQLISKETAGGKSVVVIEKGEPKSCNIVTSCEGKGKTFIMFSDDLDKALATFVLANGAAATGQKVTIFFTFWGLNVIKKLHKPNVEKDIFGKMFGMMLPSSSRKLKLSKMSMGGIGGKMMRYIMNRKGIDSLESLRQQALENGVEFIACQMSMDVMGVKQEELLDEVTIGGVATYMERADNANINLFILEHHHHHH,not soluble
11,MKIISFVLPCLLVLAGCSTPSQPEAPKPPQIGMANPASVYCQQKGGTLIPVQTAQGVSNNCKLPGGETIDEWALWRRDHPAGEKLEHHHHHH,not soluble
12,MKIKAIEPTPSPNTMKVILNEVLPSGARNNYTNENKEQAPMQVQEILKIEGIKGVYHVADFLAVERNAKYDWKVLLQQVRAVFGEEVLEESEEQQLAHFGEVKVFVQMFFTIPMQVKLTDGTTEERVGLPDRFKESIMKVQMSAPNVVKERKWVEQSTRYGNFEEIGKEVVEEIVAAYSEERVNETVKELLNQAGAVEVTIQKREPYKVTEEMMKDSDWKNRFAALEQMDPTEEDIPVLKMALDDEKVSIRRLATAYLGMVKGDEVLPLLYKALLDRSVSVRRTAGDCLSDVGDPAAMFVMIKSLKDPSKLVRWRAAMFLFELGDESAIPALKAAQDDPEFEVAMQARLALERIEGGEEAKGSVWKQMTESRKGE,not soluble
13,MKILGISGSPRKEGTHFAVNYALDYLKEKGFETKYISVFQKKIEFCIHCDYCLRTKEGCVHKDSMQEIYNGLKWADAVILGSPCYNGTVSGQLKTIMDRCRAIFAEDIDVLRNKYGMALSVGGDRNGGQEVVLKTIHDFYILNGVIPVSGGSFGSNLGATFWSQDNGKKGVEEDTEGIRTLKRTLKKFYNCLNEEGELEHHHHHH,not soluble
14,MKILITGGSGLVGRQLTKSLQAQNIEVTWLSRTKGVKDGIKSFLWDYKKGYIEEEAFDGVTHIVHLAGAGVFDKRWTKSYKKEIFDSRILTTKLLVEKALKLNGLEAFISGSAIGIYGNSMNSVPLTETALYGNDYLAQVTKEWEAATVPLENSSIRLAIIRTGIVLSEHGGALPAMINPIKAYIGSPLASGEQIISWIHIDDLCRIFSKAITDDAIKGTYNGVAPEPVTNKVLTQTAAAILHKPLVMPNVPSFALNILLGKEKAASVVEGIAVSAEKISATGFTFTYPYIKKALSDLLLEHHHHHH,not soluble
15,MKINRKGGLFLLMFLFLLTGCWDRRELEHVLFINTLGIDFKDNHYIIYPQFINFTNMAKQEGPANRNYSPAYIGKGEGKLLYDAAFDFYKSSQQKVSWEHIKSIVVTERFLKNGNLNQLNDFLSRFFQFRNTMWVFGTKEPLENILATNNIFNISSLYTIMNLPQETIRQSASVDPLRLYTFRSNYYEPGMTTRIPFLATTTEHWKQGHKAFWMLEFNEYGCIAAKSYVNHLNDSDIAGVRWTNKNTNRAPLLLKVKNRAIGELILKKPKIDTKVSIEKGKPHIVMNISLEGDIYQLMKPMPVHKVKKTLRISLKKK,not soluble
16,MKIPSLQSNFNFSAPAGYSAPIAPNRAENAYADYVLDIGKRIPLSAADLSNVYESVIRAVHDSRSRLIDQHTVDMIGNTVLDALSRSQTFRDAVSYGIHNEKVHIGCIKYRNEYELNEESSVKIDDIQSLTCNELYEYDVGQEPIFPICEAGENDNEEPYVSFSVAPDTDSYEMPSWQEGLIHEIIHHVTGSSDPSGDSNIELGPTEILARRVAQELGWSVPDFKGYAEPEREAHLRLRNLNALRQAAMRHEENERAFFERLGTISDRYEASPDFTEYSAVSNIGYGFIQQHDFPGLAINDNLQDANQIQLYHGAPYIFTFGDVDKHNQQ,soluble
17,MKIRTSMIALSLAALLSGCQSLNTEGLMQSGAQAFQAATLNDADVKALSEKSCVEMDQKAQIASADSQYGKRMAKIAAALGDNINGTPANYKVYVTKDVNAWAMANGCIRVYSGLMDMMTDNEVEGVVGHEMGHVALGHTRKAMQVAYGTTALRTAIASAGGVVGTLSQSQLADLGEKLVNAQFSQKQESEADDYSFDLLKKRGIDPNGLVTSFEKLASMEAGRNSSMFDDHPSSQARAEHIRQRIAAEK,not soluble
